# Where a chain is given by its changes, count along the chain named.
# B1: SPK002M C1 antibody (antibody, human IgG1, kappa, V domains shown)
# VH: EVQLVESGGGLIQPGGSLRLSCAASIITVTSNYMSWVRQAPGKGLEWVSVAYPGGSTFYADSVKGRFTISTDNSKNTLYLQMNSLRAEDTAVYYCARDLVVYGMDVWGQGTTVTVSS
# VL: EIVLTQSPGTLSLSPGERATLSCRASQSVSDSYLAWYQQKPGQAPRLLIYGASSRATGIPGRFSGSGSGTDFTLTISRLEPEDFAVYYCQYGVTFGGGTKVEIKR
# B2: SPK002M C2 antibody (antibody, human IgG1, kappa, V domains shown)
# VH: B1 VH
# VL: B1 VL with D31S, Y91Q
# B3: SPK002M C3 antibody (antibody, human IgG1, kappa, V domains shown)
# VH: B1 VH with A51I
# VL: B1 VL with D31S, Y91Q
# Tests used:
# [1] = biological target: Spike protein of SARS-CoV-2 strain JN.1 (hCoV-19/France/HDF-IPP21391/2023) (SARS-CoV-2); assay: cell-based or functional assay
# [2] = biological target: Spike protein of SARS-CoV-2 strain D614G (hCoV-19/France/GE1973/2020) (SARS-CoV-2, UniProt P0DTC2 14-1273); assay: cell-based or functional assay
# [3] = biological target: Spike protein of SARS-CoV-2 strain EG.5.1 (hCoV-19/France/GES-IPP15954/2023) (SARS-CoV-2); assay: cell-based or functional assay
# [4] = biological target: Spike protein of SARS-CoV-2 strain XBB.1.16 (hCoV-19/France/GES-IPP7712/2023) (SARS-CoV-2); assay: cell-based or functional assay
# [5] = biological target: Spike protein of SARS-CoV-2 strain BA.2.86 (hCoV-19/France/IDF-IPP17625/2023) (SARS-CoV-2); assay: cell-based or functional assay
# [6] = biological target: Spike protein of SARS-CoV-2 strain XBB.1.5 (GISAID EPI_ISL_16353849) (SARS-CoV-2); assay: cell-based or functional assay
# [7] = biological target: T1, recombinant SARS-CoV-2 Spike RBD domain, XBB.1.5 variant (SARS-CoV-2); assay: ELISA on coated RBD
# T1 construct: also called RBD XBB.1.5 variant
# [8] = biological target: T2, recombinant SARS-CoV-2 Spike RBD domain, BA.2.86 variant (SARS-CoV-2); assay: ELISA on coated RBD
# T2 construct: also called RBD BA.2.86 variant
# [9] = biological target: T3, recombinant SARS-CoV-2 Spike RBD domain, BA.4/5 variant (SARS-CoV-2); assay: ELISA on coated RBD
# T3 construct: also called RBD BA.4/5 variant
# [10] = biological target: T4, recombinant SARS-CoV-2 Spike RBD domain, EG.5 variant (SARS-CoV-2); assay: ELISA on coated RBD
# T4 construct: also called RBD EG.5.1 variant
# [11] = biological target: T5, recombinant SARS-CoV-2 Spike RBD domain, BQ.1.1 variant (SARS-CoV-2); assay: ELISA on coated RBD
# T5 construct: also called RBD BQ.1.1. variant
# [12] = biological target: T6, recombinant SARS-CoV-2 Spike RBD domain, XBB.1.16 variant (SARS-CoV-2); assay: ELISA on coated RBD
# T6 construct: also called RBD XBB.1.16 variant
# [13] = biological target: T7, recombinant SARS-CoV-2 Spike RBD domain, BA.2 variant (SARS-CoV-2); assay: ELISA on coated RBD
# T7 construct: also called RBD BA.2. variant
# [14] = biological target: T8, recombinant SARS-CoV-2 Spike RBD domain, JN-1 variant (SARS-CoV-2); assay: ELISA on coated RBD
# T8 construct: also called RBD JN-1 variant
# [15] = biological target: T9, recombinant SARS-CoV-2 Spike RBD domain, Delta variant (SARS-CoV-2); assay: ELISA on coated RBD
# T9 construct: also called RBD Delta variant
# [16] = biological target: T10, recombinant SARS-CoV-2 Spike RBD domain, BA.2.75.2 variant (SARS-CoV-2); assay: ELISA on coated RBD
# T10 construct: also called RBD BA.2.75.2 variant
# [17] = biological target: T1, recombinant SARS-CoV-2 Spike RBD …; assay: competition ELISA, blocking of RBD binding to ACE2 ectodomain
# [18] = biological target: T2, recombinant SARS-CoV-2 Spike RBD …; assay: as above
# [19] = biological target: T3, recombinant SARS-CoV-2 Spike RBD …; assay: as above
# [20] = biological target: T4, recombinant SARS-CoV-2 Spike RBD …; assay: as above
# [21] = biological target: T5, recombinant SARS-CoV-2 Spike RBD …; assay: as above
# [22] = biological target: T6, recombinant SARS-CoV-2 Spike RBD …; assay: as above
# [23] = biological target: T7, recombinant SARS-CoV-2 Spike RBD …; assay: as above
# [24] = biological target: T8, recombinant SARS-CoV-2 Spike RBD …; assay: as above
# [25] = biological target: T9, recombinant SARS-CoV-2 Spike RBD …; assay: as above
# [26] = biological target: T10, recombinant SARS-CoV-2 Spike RBD …; assay: as above
Binder,"IC50, S-Fuse neutralization of live virus [1] [µg/mL]","IC50, S-Fuse neutralization of live virus [2] [µg/mL]","IC50, S-Fuse neutralization of live virus [3] [µg/mL]","IC50, S-Fuse neutralization of live virus [4] [µg/mL]","IC50, S-Fuse neutralization of live virus [5] [µg/mL]","IC50, S-Fuse neutralization of live virus [6] [µg/mL]",Binding AUC [7],Binding AUC [8],Binding AUC [9],Binding AUC [10],Binding AUC [11],Binding AUC [12],Binding AUC [13],Binding AUC [14],Binding AUC [15],Binding AUC [16],Blocking % [17] [%],Blocking % [18] [%],Blocking % [19] [%],Blocking % [20] [%],other results
B1,1.73,0.08,0.16,0.12,0.03,0.07,31,38,30,32,31,29,28,39,32,28,96,96,97,96,Blocking % [21]: 97%; Blocking % [22]: 96%; Blocking % [23]: 95%; Blocking % [24]: 83%; Blocking % [25]: 94%; Blocking % [26]: 95%
B2,53.8,0.06,2.16,0.21,0.05,0.14,31,38,30,32,31,29,23,33,32,28,93,91,93,89,Blocking % [21]: 95%; Blocking % [22]: 93%; Blocking % [23]: 93%; Blocking % [24]: 28%; Blocking % [25]: 90%; Blocking % [26]: 92%
B3,60.1,0.08,6.08,0.3,0.33,0.13,32,38,32,33,31,31,19,29,33,29,90,90,94,81,Blocking % [21]: 94%; Blocking % [22]: 90%; Blocking % [23]: 94%; Blocking % [24]: 0%; Blocking % [25]: 95%; Blocking % [26]: 94%
